For 25 molecules, EC50 and Kd results are on record in patent publication US20260028391A1 (HUMABS BIOMED, published 2026).

B1: MPH12 VH-FRGL / MPH12 VL-FRGL (antibody, V domains shown)
VH: QVQLVESGGGLVKPGGSLRLSCAASGFTFSGFYMKWIRQAPGKGLEWVSSISASGSYTNYADSVEGRFTISRDNAKNSLYLQMNSLRAEDTAVYYCARGDSYCGASACHGEFFHKWGQGTLVTVSS
VL: QSVLTQPPSVSGAPGQRVTISCTGSDSNIGADFDVHWYQQLPGTAPKLLIYGNINRPSGVPDRFSGSKSGTSASLAITGLQAEDEADYYCQSYDRSLHYVFGTGTKVTVL
notes: MPH12 variant; VH and VL only
B2: MPH12 VH-FRGL / MPH12 VL-S26A (antibody, V domains shown)
VH: B1 VH
VL: B1 VL with S27A, K68R, S74F, G79R, T103A
notes: MPH12 variant; VH and VL only
B3: MPH12 VH-FRGL / MPH12 VL (antibody, V domains shown)
VH: B1 VH
VL: B1 VL with K68R, S74F, G79R, T103A
notes: MPH12 variant; VH and VL only
B4: MPH12 VH-FRGL / MPH12 VL-D25S (antibody, V domains shown)
VH: B1 VH
VL: B1 VL with D26S, K68R, S74F, G79R, T103A
notes: MPH12 variant; VH and VL only
B5: MPH12 VH-FRGL / MPH12 VL-D25E (antibody, V domains shown)
VH: B1 VH
VL: B1 VL with D26E, K68R, S74F, G79R, T103A
notes: MPH12 variant; VH and VL only
B6: MPK174-v2 (antibody, V domains shown)
VH: EVQLVESGGGLVKPGGSLRLSCAASRFKFGDYYMSWIRQAPGKGLEWVSNISPSSSYTNYADSVKGRFTISRDNAKNLLYLQMNSLRAEDTAVYYCARESCSGGSCSLHGMDVWGQGTTVTVAS
VL: QSVLTQPPSVSGAPGQRVTISCTGSSSNIGAGYDVHWYQQLPGTAPKLLIYDNSNRPSGVPDRFSGSKSGTSASLAITGLRAEDDADYYCQSYDRSLGGSIFGGGTKLTVL
notes: VH and VL only
B7: MPK196 (antibody, V domains shown)
VH: B6 VH with E1Q, K76N
VL: B6 VL
notes: VH and VL only
B8: MPK152 (antibody, V domains shown)
VH: EVQLVESGGGLVKPGGSLRLSCAASGLTISGYYMIWIRQAPGKGLEWISYISGSSSYTNYADSVKGRFTISRDNGQNTLFLQMDSLRVEDTAVYFCATEETPSPGPFGLWGQGTLVTVSS
VL: QSVVTQPPSVSGAPGQRVTISCTGTSSNIGAGYDVHWYQQFPGTSPKLLIFRNTNRPSGVPDRFSGSTSGSSASLAITGLQTEDEADYYCQSYDRSLDGWVFGGGTELTVL
notes: VH and VL only
B9: MPK153 (antibody, V domains shown)
VH: EVHLVESGGGLVKPGGSLRLSCAASGFTFTGYFMIWIRQAPGKGLEWISYISSSSNYINYADSVKGRFTISRDNGQNTLYLQMNSLRPDDTAVYYCATEQVPSPGPFDLWGQGTLVTVSS
VL: B8 VL with V4L, T19I, T44A, N55D, T68K, T78A, T82A, E107K, L108V
notes: VH and VL only
B10: MPK162 (antibody, V domains shown)
VH: EVQLVESGGGLVKPGDSLRLSCAASGFSLSSYYMFWIRQAPGKGLEWVSDISGGSTFTNYADSVKGRFTISRDNAKKVLYLQMNSLRVDDSAVYYCVRGSSISPNWFESWGQGALVTVSS
VL: QSVLTQPPSVSGAPGQRVTISCTGTSSNIGAGYDVHWYQQVPGTAPKLLIYGNSNRPSGVPDRFSGSKSGTAASLAINGLQTEDEAEYYCQSYDRSLTGSYVFGSGTRVFVR
notes: VH and VL only
B11: MPK142-v1 (antibody, V domains shown)
VH: EVQLVESGGGLVEPGGSLRLSCAASGFTISGYGMSWVRQAPGKGLEWVSSISASSSYIYYGDAMKGRITISRDNGWNSMYLQMNSLRTEDTAVYYCATAPIEPPYFDLWGRGTLVTVSS
VL: QSVLTQPPSVSGAPGQRVTISCTGSSSNIGAGYDVHWYQQFPGKAPKVLIYGNNNRPSGVPDRFAASNSGASASLAITGLQAEDEAAYFCQSYDRRLSGPVFGGGTKLTVL
notes: VH and VL only
B12: MPK142-v2 (antibody, V domains shown)
VH: B11 VH
VL: DIQLTQTPTSLSASVGDRVTFTCRASQNIGFYLNWYQQKPGKAPRLLIYGASNLQSGVPSRFSGSGAGTDFSLTISSLQPEDFATYYCQQSFNTPRTFGQGTKVEIN
notes: VH and VL only
B13: MPK145 (antibody, V domains shown)
VH: B11 VH
VL: B11 VL with L4V
notes: VH and VL only
B14: MPK158 (antibody, V domains shown)
VH: EVQLVESGGGLVKPGGSLRLSCAASGFSISGFYMIWIRQAPGKGLEWISDISASSSYIDYADSVKGRFTISRDNGQNTVHLLMNNLRADDTGVYYCAREQTPSPGPFDLWGQGTLVTVST
VL: QPVLTQPPSVSGAPGQRVTISCTGRSSNIGAGYDVHWYQHLPGTSPKLLIYRNSNRPSGVPDRFSGSTSGTSASLAITGLQADDEADYYCQAYDRILGGWAFGGGTKLTVL
notes: VH and VL only
B15: MPK136 (antibody, V domains shown)
VH: EVQLVESGGGLVKPGGSLRLSCEASGFSLSGYYMIWIRQAPGKGLEWISSISGSGNYINYADSVKGRFTVSRDNGHNTLYLQMNSLRVEDTAVYYCATEQTPSPGPFDHWGQGTLVTVSS
VL: QVQLVQPPSVSGAPGQRVSISCTGTSSNIGTGYDVHWYQQFPGTSPKLLIYRNTNRPSGVPDRFSGSKSGSSASLAIAGLQAEDEADYYCQSYDRSVSGWVFGGGTKLTVL
notes: VH and VL only
B16: MPK155 (antibody, V domains shown)
VH: EVQLVESGGGLVKPGGSLRLSCEASGISLSGYYMIWIRQAPGKGLEWISSISSSSNYIDYADSVRGRFTISRHNGQNTLYLQMNSLRVEDTAVYFCATEQTPSPGPFDLWGQGILVTVSS
VL: B15 VL with V2S, Q3V, V5T, S19T, S21F, I29L, T31A, N53Y
notes: VH and VL only
B17: MPK150-v2 (antibody, V domains shown)
VH: B16 VH with S53G, N56T, L79I, D108E, Q112R
VL: B15 VL with V2S, Q3V, V5T, S19T, S21F, Y51F, T54S, S96G, S98N
notes: VH and VL only
B18: MPK157 (antibody, V domains shown)
VH: EVQLVESGGGLVKPGGSLRLSCSASGFTLSGYNMNWVRQAPGKGLEWISYISASSSYINYADSVKGRFTISRDNGRSSLYLQMNSLRAEDTAVYFCTTQAELPGWFDPWGQGTLVTVSS
VL: QSVLTQPPSMSGAPGQRVTISCTGSSSNIGAGYDVNWYRQLPGTAPQLLIYRNTNRPSGVPDRFSGSNSGTSASLAITGLQADDEAHYYCQSYDRSLSGWVFGGGTKLTVL
notes: VH and VL only
B19: MPK133 (antibody, V domains shown)
VH: QVQLVQSGGGLVKPGGSLRLSCAASEFSFSGYFMIWIRQAPGKGLEWISYISGSSTYTNYADSVKGRFTISRDNAQNTLYLEMNSLRAEDTGVYYCATEQVPSPGPFDLWGQGTLVTVSS
VL: QSVLTQPPSVSGAPGQRVTISCTGSSSNIGAGYDVHWYQQFPGRSPTLLIYRNTNRPSGVPDRFSGSQSGSSASLAITGLQAEDEADYYCQSYDRTLSGWAFGGGTKVTVL
notes: VH and VL only
B20: MPK149 (antibody, V domains shown)
VH: QVQLVESGGGLVKPGGSLRLSCEASGFTISGYFMIWIRQAPGKGLEWISSISGSSTYTDYAESVKGRFTISRDNGRSTLYLQMNSLRVEDTAVYYCATEQTPSPGPFDLWGQGTLVTVSS
VL: B8 VL with K47R, F51N, T68Q, T78A, T82A, L97V, D98S, E107K
notes: VH and VL only
B21: MPK204 (antibody, V domains shown)
VH: B16 VH with E1Q, I27L, R65K, F95Y, I114T
VL: B15 VL with V2S, Q3V, V5T, S19T
notes: VH and VL only
B22: MPK144 (antibody, V domains shown)
VH: EVQLVESGGGLVRPGGSLRLSCAASGFTFTGYYMMWIRQAPGKGLEWISDISSSSSYTNYADSVKGRFAISRDNAQNTLYLQMNSLRAEDTAVYYCATEQVPSPGPFDLWGQGTLVTVSS
VL: B19 VL with I29F, R44T, T47K, Q68K, S71T, T96S, S98T, A101V, V108L
notes: VH and VL only
B23: MPK146 (antibody, V domains shown)
VH: QVQLVESGGGLVKPGGSLRLSCAASGFTFSGYYMIWIRQAPGKGLEWIASISGSSNYIDYADSVRGRFTISRDNARNILDLQMNSLRAGDTALYYCATEQVPSPGPFDLWGQGTLVTVSS
VL: B19 VL with S26N, I29L, R44T, T47K, S65A, Q68K, S71T, T96S, A101V, V108L
notes: VH and VL only
B24: MPK151 (antibody, V domains shown)
VH: EVQLVESGGGLVKPGGSLRLSCAASGLTISGYYMIWIRQAPGKGLEWISDISASSTYTDYAESVKGRFSISRDNGQNTVYLQMNSLRAEDTAVYYCATEQTPSPGPFDLWGQGTLVTVSS
VL: QSVLTQPPSVSGAPGQKITISCTGGSSNFGAGYDVHWYQQFPGTSPKLLIYRNTFRPSGVPDRFSGSKSGTSASLAITGLQAEDEADYYCQSYDRSLSGWVFGGGTKLTVL
notes: VH and VL only
B25: MPK141 (antibody, V domains shown)
VH: EVQLVESGGGLVKPGGSLRLSCAASGFTISGYYMTWIRQAPGKGLEWISYISGSSSYTNYADSVKGRFTISRDNGRNSVYLQMNSLRADDTGVYYCAREETPSPGPFDSWGQGILVTVSS
VL: QSVLTQPPSVSGAPGQRIIISCIGSSSNIGTGYDVHWYQQLPGRAPKLLISRNTNRPSGIPDRFSGSKSGTSASLAITGLQADDEADYYCQSYDRGLDGWVFGGGTKLTVL
notes: VH and VL only

Substitutions are numbered along the chain they refer to.

The first assay addresses T1, DS-Cav1 RSV F (respiratory syncytial virus).
T1 construct: also called DC-VCav1
As to the kind of experiment: ELISA on DS-Cav1 RSV F.
The molecule B1 came in with an EC50 of 0.0305 µg/mL.

Consider B2, for which a half-maximal effect (EC50) was put at 0.0397 µg/mL.

Regarding B3, the response was half-maximal at 0.0328 µg/mL (EC50).

In turn, B4 returned an EC50 of 0.0219 µg/mL.

B5: the EC50 stood at 0.034 µg/mL.

The next assay concerns the target RSV fusion glycoprotein (RSV-F) (respiratory syncytial virus). As to the kind of experiment: SPR; F protein loaded on streptavidin sensors, mAb in solution.
Protocol: Binding affinity of mAbs for RSV-F protein, MPV-F D280 protein, and MPV-F N280 F variant protein was assessed using surface plasmon resonance (SPR).
As for B6, binding was characterised by a dissociation constant (Kd) of 1 pM.

Take B7: the Kd is 1 pM.

As for B8, binding was characterised by a dissociation constant (Kd) of 1 pM.

As to B9, the Kd was 460 pM. This Kd is about 460-fold higher than that of the molecule before.

As for B10, the Kd worked out at 100000 pM.

For the molecule B11, the Kd stood at 100000 pM.

On to B12, for which the Kd came out at 16000 pM. Against the preceding molecule, the Kd is about 6.2-fold lower.

Turning to B13, binding was put at a Kd of 1 pM.

Molecule B14 came in with a Kd of 1 pM.

The molecule B15 came in with a Kd of 1 pM.

As to B16, the Kd amounted to 6.3 pM.

B17 returned a Kd of 1 pM.

B18 gave a Kd of 1 pM. This counts as picomolar.

Molecule B19 displayed a Kd of 1 pM.

B20 displayed a Kd of 1 pM.

Turning to B21, binding was put at a Kd of 290 pM.

The molecule B22 came in with a Kd of 1 pM.

On to B23, for which the Kd was 9.5 pM.

As for B24, the affinity, expressed as Kd, was 80 pM.

On to B25, for which the Kd turned out to be 130 pM.
